We go through 2 molecules from US20080045451A1, “Novel thymidylate synthase mutants” (priority 2000, published 2008).

Values joined by “and” are separate entries in the source; they are usually repeats but may differ in a detail not shown here. Equal entries are not always repeated.

Data set [1] has as its system E. coli χ2913 cells. Description: Survival of TS-deficient E. coli χ2913 expressing wild type or mutant TS on M9 plates containing 5-FdUR. It is filed as cell-based. Here is the method: The resistance of each of the 41 mutants to 5-FdUR is expressed as fold enhancement in survival relative to wild type determined in parallel assays. All assays were carried out in duplicate at varying concentration of 5-FdUR and most comparison were repeated in two or more separate experiments. […] Only those experiments in which the survival of the wild type was lower than 1% were included in this tabulation. The percent survival of the wild type at the indicated concentrations of 5-FdUR is as follows: (a) 0.4% in 0.4 nM; (b) <0.1% in a 150 nM; (c) 0.1% at 150 nM; (d) 0 at 300 nM; (e) 0.5% at 150 nM; (f) 0 at 200 nM; (g) 0.95 at 150 nM.
E. coli χ2913 cells harboring plasmids with random substitutions encoding different amino acids, the TS library, were grown overnight at 37° C. in 2×YT medium containing 50 mg/ml of carbenicillin and 50 mg/ml thymidine. Cultures were diluted 1:100 in the same medium and grown at 37° C. until the OD600 reached 0.6 to 0.8. Aliquots (1 ml) of the exponentially growing cells were pelleted and resuspended in M9 salts and plated on three different media. On 1×YT containing […] of carbenicillin and supplemented with 50 mg/ml of thymidine, essentially all cells harboring the plasmid DNA should be recovered. On M9 plates containing carbenicillin, only cells expressing active TS proteins should grow because the medium lacks thymidine. Drug resistant clones were selected on M9 plates containing carbenicillin and increasing concentrations of 5FdUR essentially as previously described (Landis, D. M., Loeb, L. A., 1998, J. Biol. Chem. 273:25809-25817)
To isolate mutants that render E. coli χ2913 resistant to 5-FdUR, the TS library was plated on M9 minimal medium containing 200 or 300 nM 5-FdUR. […] Resistant colonies were selected and plasmid DNA was isolated and re-transformed into fresh χ2913 cells to confirm that the plasmid was the source of the drug-resistant phenotype.
To obtain a profile of amino acid replacements conferring resistance, the remaining, 3′-proximal third of the cDNA from each of the 33 mutants was sequenced. […] Resistance is recorded as percent survival relative to percent survival of host cells harboring wild type TS at 150 nM 5-FdUR of greater. Expression of TS in 10 of the resistant mutants was analyzed by Western blotting with antiserum directed against human TS. The level of expression of wild type TS was more than 2-fold greater than that of any of the mutants, estimated by visual inspection of the gel (data not shown). The mutant proteins may be more labile than the wild type or more susceptible to proteolytic degradation.

Data set [2] in a line: Steady-state kinetic analysis of purified His-tagged TS proteins. Type of data set: biochemical, human. Particulars: 25° C., dUMP 400 μM. The source says:
To subclone mutant TS fragments into the pH is vector (a modified pUC12 vector provided by A. Hizi), the TS cDNA was PCR-amplified by using HK-MUT5′ and TSXho3′ (5′-[…]-3′, SEQ ID NO: 4). After digestion with NdeI and XhoI, the amplified fragments were ligated into the NdeISalI digested pH is vector. The reconstructed plasmids were verified by both restriction analysis and DNA sequencing. Wild type and mutant TS proteins, as N-terminal hexahistidine fusions, were then purified by metal chelation chromatography on Ni^2+ affinity resin (His Bind resin and buffer kit, Novagen), as previously described, with minor modifications (see Landis, cited above). An overnight culture of χ2913 cells expressing the His-TS fusion protein was diluted 1:100 into 250 ml of 2×YT medium containing carbenicillin and thymidine. […] The concentration of purified TS was determined by using the Bradford assay.
TS activity was monitored spectrophotometrically by the increase in absorbance at 340 nm that occurs concomitant with the production of H2 folate (Δε=6400 M^−1 cm^−1). […] Steady-state kinetic parameters were derived by a nonlinear least squares fit of the data to the Michaelis Menten equation with KaleidaGraph 3.0 software (Abelbeck Software, Reading Pa.). […]

Data set [3] in a line: Inhibition constants (Ki) for 5-FdUMP from Dixon plot. Type of data set: biochemical, human. Particulars: 25° C. As for the experimental part:
TS activity was monitored spectrophotometrically by the increase in absorbance at 340 nm that occurs concomitant with the production of H2 folate (Δε=6400 M^−1 cm^−1). The reaction buffer contained 50 mM TES (pH 7.4), 25 mM NaCl, 6.5 mM formaldehyde, 1 mM EDTA and 150 μM 2-mercaptoethanol. When the concentration of dUMP was varied, a high concentration of (6R)—CH2H4 folate was added (3001200 mM of a racemic mixture); when the concentration of (6R)—CH2H4-folate was varied, the concentration of dUMP was 400 μM. Purified wild type or mutant TS protein was added to initiate the reaction at 25° C. Initial velocity measurements were obtained with a Perkin Elmer Lambda Bio 20 UV/VIS spectrophotometer. Steady-state kinetic parameters were derived by a nonlinear least squares fit of the data to the Michaelis Menten equation with KaleidaGraph 3.0 software (Abelbeck Software, Reading Pa.). […] Two dUMP concentrations (30 μM and 300 μM) were used, and FdUMP concentrations were varied. To initiate reactions, CH2H4-folate was added to yield a final concentration of 300 μM of the active isomer.

Data set [4] concerns bacterial strain χ2913. Description: Testing the 5-FU-resistance of TS-mutants: colonies of transfected χ2913 on 5-FdUR selection plates. It is filed as cell-based. The following applies: 200 nM 5-FdUR, FIG. 5. As for the experimental part: The bacterial strain χ2913 was transfected with expressions vectors of the TS-mutants and defined amounts of bacteria in the exponential growth phase were plated on selection plates. The selection plates contained increasing concentrations of 5-fluorodeoxyuridine (0, 75, 150, 200, respectively 300 nM). 5-fluorodeoxyuridine (5-FdUR) is a very effective metabolite, which is generated from 5-fluorouracil in the cell. The selection plates were made of minimal medium, which contained carbenicilline and tetracycline. […] After 36 to 48 hours the number of growing colonies was determined. For this the number of colonies of bacteria, which were transfected with wild type thymidylate synthase was set as 100% and all other numbers of colonies were correspondingly converted to % values.

B1: Mutant 302: human TS mutant, substitutions T53S, Y258F (protein, UniProt P04818 2-313, looked up, variant T53S Y258F)
Thymidylate synthase: PVAGSELPRRPLPPAAQERDAEPRPPHGELQYLGQIQHILRCGVRKDDRTGSGTLSVFGMQARYSLRDEFPLLTTKRVFWKGVLEELLWFIKGSTNAKELSSKGVKIWDANGSRDFLDSLGFSTREEGDLGPVYGFQWRHFGAEYRDMESDYSGQGVDQLQRVIDTIKTNPDDRRIIMCAWNPRDLPLMALPPCHALCQFYVVNSELSCQLYQRSGDMGLGVPFNIASYALLTYMIAHITGLKPGDFIHTLGDAHIFLNHIEPLKIQLQREPRPFPKLRILRKVEKIDDFKAEDFQIEGYNPHPTIKMEMAV
As for B1, in data set [1] ((g) wild type survival 0.95 at 150 nM 5-FdUR), the “Survival Mutant/WT (fold enhancement in survival relative to wild type)” value came out at 220 fold. In addition, in data set [1] (FIG. 3A-3C, single mutants made by site-directed mutagenesis), the “resistance to 5-FdUR (survival curves), in words” value is reported as “as resistant or more resistant to elevated concentrations of 5-FdUR than any clone tested”. For the same molecule, the “5-FdUR concentration at which colonies formed on minimal plates” value in data set [1] (side-by-side comparison, FIG. 3A, 200 nM clones did not grow at 250 nM) came out at 250 nM. In data set [2], the “Km for CH2H4-folate, fold higher than wild type TS” value is “approximately 10 fold”. In addition, in data set [3], the “Ki for 5-FdUMP, increase over wild type TS” value is listed as 6 fold.

B2: wild type TS: wild type human thymidylate synthase (SEQ ID NO: 7) (protein, listed as Homo sapiens)
chain: MPVAGSELPRRPLPPAAQERDAEPRPPHGELQYLGQIQHILRCGVRKDDRTGTGTLSVFGMQARYSLRDEFPLLTTKRVFWKGVLEELLWFIKGSTNAKELSSKGVKIWDANGSRDFLDSLGFSTREEGDLGPVYGFQWRHFGAEYRDMESDYSGQGVDQLQRVIDTIKTNPDDRRIIMCAWNPRDLPLMALPPCHALCQFYVVNSELSCQLYQRSGDMGLGVPFNIASYALLTYMIAHITGLKPGDFIHTLGDAHIYLNHIEPLKIQLQREPRPFPKLRILRKVEKIDDFKAEDFQIEGYNPHPTIKMEMAV
As for B2, the “percent survival of the wild type” value in data set [1] (0.4 nM 5-FdUR) is 0.4%; in data set [1] (150 nM 5-FdUR, separate experiments (b), (c), (e), (g)) it was < 0.1% and 0.1% and 0.5% and 0.95%; in data set [1] (200 nM 5-FdUR), 0%; in data set [1] (300 nM 5-FdUR), 0%. Moreover, in data set [4], the “survival rate of bacteria transfected with TS expression vector” value was “no wild type TSWT survived”.
